According to patent US8153424B2, “Method of in vitro differentiation of neural stem cells, motor neurons and dopamine neurons from primate embryonic stem cells” (Wisconsin Alumni Research Foundation, priority 2001, dated 2012):

Tested on: hESC-derived neuroectodermal cells
Assay: Midbrain regionalization and DA neuron differentiation, immunocytochemistry and cell counting
Assay type: cell-based, human
Settings: FGF8 100 ng/ml applied at day nine for six days, expanded in FGF8 four days, then SHH six days
Method: Differentiation and enrichment of neuroectodermal cells. hESC colonies were detached from MEF layer by the treatment of the culture with 0.2 mg/ml of dispase (Roche Diagnostics) and grown as floating cell aggregates (embryoid body) for four days with a daily change of ESC medium. They were then grown in an adherent substrate in a neural medium consisting of DMEM/F12 (2:1), supplemented with N2 (Gibco), 0.1 mM non-essential amino acids, 2 μg/ml heparin with a medium change every other day. The ESC aggregates attached and formed individual colonies at around day six. […] The neural rosettes were isolated through differential enzymatic response (Zhang et al., supra, 2001). Growth factors were added during the course of differentiation to influence regionalization (see results).
DA neuron differentiation. The enriched neuroectodermal cells were dissociated by 0.025% trypsin and 0.27 mM EDTA in PBS at 37° C. for 10-15 minutes and plated onto 12-mm coverslips (pre-coated with 100 μg/ml polyornithine and 10 μg/ml laminin) at a density of 40,000-50,000 cells/coverslip. […]
Immunocytochemistry and cell quantification. […] Staining was visualized with a Nikon fluorescence microscope. […] The cells in ten visual fields were randomly selected and counted from each coverslip.

B1: FGF8: fibroblast growth factor 8 (protein, UniProt P55075 23-233, looked up)
Fibroblast growth factor 8: QEGPGRGPALGRELASLFRAGREPQGVSQQHVREQSLVTDQLSRRLIRTYQLYSRTSGKHVQVLANKRINAMAEDGDPFAKLIVETDTFGSRVRVRGAETGLYICMNKKGKLIAKSNGKGKDCVFTEIVLENNYTALQNAKYEGWYMAFTRKGRPRKGSKTRQHQREVHFMKRLPRGHHTTEQSLRFEFLNYPPFTRSLRGSQRTWAPEPR
En-1 expression in nestin-expressing neuroectodermal cells: En-1 expression was observed
